Source: patent publication US20140357838A1, “N-Terminally Modified Insulin Derivatives” (Novo Nordisk A/S, priority 2011, published 2014)
Starred links: 1 amine or outer side, 2 acyl side, 3 side chain; linkers in the order of their positions; H or OH if unused. Positions of bridges follow the written chain, without caps; N, C: chain ends. Groups on a side chain read outwards from the residue. Chains are numbered I, II in the order given. No end group written: not given here. *: point of attachment. Phe(Nα-CONH2) = NC(=O)N[C@@H](Cc1ccccc1)C(=O)*; C20 diacid = O=C(O)CCCCCCCCCCCCCCCCCCC(=O)*; C18 diacid = O=C(O)CCCCCCCCCCCCCCCCC(=O)*; NMe2Phe = CN(C)[C@@H](Cc1ccccc1)C(=O)*; γGlu = O=C(O)[C@H](CCC(=O)[*:2])N[*:1]; Hydantoyl = NC(=O)NCC(=O)*; AEEA = NCCOCCOCC(=O)O; Me2Gly = CN(C)CC(=O)*

Assays:
[1] = Chemical stability of insulin derivatives in 2 mM phosphate (SEC-HPLC and RP-HPLC); format: physicochemical; conditions: 4 weeks 37° C. minus 5° C. start sample; for Chemical degradation (%) (4 weeks 37° C.- 0 weeks 5° C.): pH 7.5, RP-HPLC; for HMWP Formation (%) (4 weeks 37° C.- 0 weeks 5° C.): pH 7.5, SEC-HPLC
Protocol: Chemical stability of an insulin derivative is assessed after incubating insulin derivative in 2 mM phosphate, pH=7.5 at 37° C. for up to 8 weeks. Formation of high molecular weight products (HMWP) is determined by SEC HPLC analysis after 0, 2, 4 and optionally 8 weeks. The results of the SEC method are given as a difference between HMWP formation at 37° C. and 5° C. start sample as a percentage of total absorbance at 215 nm. Chemical degradation products are determined by RP HPLC analysis after 0, 2, 4 and optionally 8 weeks. The results of the RP method are given as a difference between chemical degradation observed at 37° C. and 5° C. start sample as a percentage of total absorbance at 215 nm.
• Solvent: 500 mM NaCl, 10 mM NaH2PO4, 5 mM H3PO4, 50% (v/v) 2-propanol • Flow: 0.5 ml/min • Run time: 30 min • UV Detection: 215 nm • Column: Insulin HMWP column from Waters 7.8×300 mm • Temperature: 50° C.
• Solvent A: 0.09M phosphate buffer pH 3.6 (di-ammoniumhydrogenphosphate), 10% MeCN (v/v) • Solvent B: 80% MeCN (v/v %) • Flow: 0.3 ml/min • Runtime: 33 min • UV Detection: 215 nm • Column: Waters Acquity BEH130 C18 Column 1.7 μm, 150×2.1 mm • Temperature: 50° C. • Gradient: […]

[2] = Hydrophobicity by isocratic reverse phase HPLC; format: physicochemical; conditions: k'rel, isocratic RP-HPLC, pH 7.3, human insulin = 1
Protocol: The hydrophobicity of an N-terminally modified insulin is found by reverse phase HPLC run under isocratic conditions. […] The hydrophobicity, k′rel, is calculated as: k′relderiv=((tderiv−t0)(tref−t0)*k′relref. Using HI as reference: k′relref=k′relHI=1. The void time of the HPLC system, t0, is determined by injecting 5 μl of 0.1 mM NaNO3. Running conditions:
Column: Lichrosorb RP-C18, 5 μm, 4×250 mm
Buffer A: 0.1 M natrium phosphate pH 7.3, 10 vol % CH3CN
After running an initial gradient, the isocratic level for running the derivative and reference (for example HI) is chosen, and the elution times of the derivative and reference under isocratic conditions are used in the above equation to calculate k′relderiv.

human insulin receptor [3] = molecular target: T1, human insulin receptor (Homo sapiens, UniProt P06213); assay: Insulin receptor affinity, SPA assay with […] HSA in binding buffer; conditions: relative to the affinity of human insulin
T1 sequence (P06213 28-746 isoform P06213-2 limits assumed): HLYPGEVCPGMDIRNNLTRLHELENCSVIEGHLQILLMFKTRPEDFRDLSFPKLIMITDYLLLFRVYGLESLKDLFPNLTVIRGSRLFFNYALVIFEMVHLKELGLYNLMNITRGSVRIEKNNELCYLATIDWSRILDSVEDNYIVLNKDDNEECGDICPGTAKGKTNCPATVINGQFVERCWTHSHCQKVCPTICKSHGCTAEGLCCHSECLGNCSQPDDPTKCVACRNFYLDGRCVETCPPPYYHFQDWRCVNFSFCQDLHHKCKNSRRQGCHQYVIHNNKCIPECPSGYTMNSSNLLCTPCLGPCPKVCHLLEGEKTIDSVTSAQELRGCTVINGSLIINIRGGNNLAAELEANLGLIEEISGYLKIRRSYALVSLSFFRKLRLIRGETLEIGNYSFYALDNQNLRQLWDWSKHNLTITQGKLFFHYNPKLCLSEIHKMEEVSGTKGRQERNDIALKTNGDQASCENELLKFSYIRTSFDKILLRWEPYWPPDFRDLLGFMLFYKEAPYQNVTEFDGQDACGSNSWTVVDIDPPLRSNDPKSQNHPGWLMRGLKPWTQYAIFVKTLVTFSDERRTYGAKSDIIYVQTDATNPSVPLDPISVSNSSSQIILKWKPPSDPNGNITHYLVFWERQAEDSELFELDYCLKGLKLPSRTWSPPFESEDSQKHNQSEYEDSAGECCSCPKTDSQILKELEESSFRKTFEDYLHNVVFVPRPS
T1 sequence (P06213 763-1382 partner limits assumed): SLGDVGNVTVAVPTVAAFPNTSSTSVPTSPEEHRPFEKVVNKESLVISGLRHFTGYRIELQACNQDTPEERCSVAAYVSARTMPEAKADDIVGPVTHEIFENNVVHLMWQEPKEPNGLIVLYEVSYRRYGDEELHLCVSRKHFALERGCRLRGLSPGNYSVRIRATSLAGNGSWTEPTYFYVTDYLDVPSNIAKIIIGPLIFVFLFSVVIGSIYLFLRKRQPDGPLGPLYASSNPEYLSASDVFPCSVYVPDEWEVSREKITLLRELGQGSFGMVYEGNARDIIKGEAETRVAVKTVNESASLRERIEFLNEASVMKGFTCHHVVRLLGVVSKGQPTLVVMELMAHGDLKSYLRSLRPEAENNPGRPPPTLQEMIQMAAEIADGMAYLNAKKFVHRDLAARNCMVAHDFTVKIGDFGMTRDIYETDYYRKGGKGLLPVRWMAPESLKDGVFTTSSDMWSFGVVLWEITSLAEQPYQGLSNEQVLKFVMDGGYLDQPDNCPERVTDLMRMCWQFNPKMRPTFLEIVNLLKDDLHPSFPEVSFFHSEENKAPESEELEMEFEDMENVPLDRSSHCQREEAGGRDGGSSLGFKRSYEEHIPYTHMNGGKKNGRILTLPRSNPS
Protocol: (§1) SPA-PVT antibody-binding beads, anti-mouse reagent (Amersham Bio-sciences, Cat No. PRNQ0017) are mixed with 25 ml of binding buffer (100 mM HEPES pH 7.8; 100 mM sodium chloride, 10 mM MgSO4, 0.025% Tween-20). […] A total of 100 μl reagent mix is then added to each well in the Packard Optiplate and a dilution series of the N-terminally modified insulin is made in the Optiplate from appropriate samples. The samples are then incubated for 16 hours while gently shaken. The phases are the then separated by centrifugation for 1 min and the plates counted in a Topcounter.

human insulin receptor [4] = molecular target: T1, human insulin receptor; assay: Insulin receptor affinity, SPA antibody capture assay (0% HSA); format: binding; conditions: relative to the affinity of human insulin
Protocol: as §1

Substance | Chemical degradation (%) (4 weeks 37° C.- 0 weeks 5° C.) [1] | HMWP Formation (%) (4 weeks 37° C.- 0 weeks 5° C.) [1] | Hydrophobicity rel. to human insulin [2] | Relative IR-A affinity (@ […] HSA) (%)e (human insulin receptor [3]) [%] | Relative IR-A affinity (@ 0% HSA) (%) (human insulin receptor [4])
I: Me2Gly-VCQHLCGSHLVEALHLVCGERGFHYTPK([γGlu-C18 diacid]) / II: Me2Gly-IVEQCCTSCCSLEQLENYCN (disulfide I:2-II:9, I:6-II:6, I:18-II:19, II:5-II:10) [Example 8, A1(N^α,N^α-Dimethyl), A10C, A14E, B1G(N^α,N^α-dimethyl), B3C, B16H, B25H, B29K(N^εoctadecanedioyl-gGlu), desB30 Human Insulin] | 66.4 | 54.5 |  |  | 
I: Me2Gly-VCQHLCGSHLVEALYLVCGERGFFYPK([AEEA-AEEA-γGlu-C18 diacid]) / II: Me2Gly-IVEQCCTSCCSLEQLENYCN (disulfide I:2-II:9, I:6-II:6, I:18-II:19, II:5-II:10) [Example 14, A1(N^α,N^α-Dimethyl), A10C, A14E, B1G(N^α,N^α-dimethyl), B3C, desB27, B29K(N^εoctadecanedioyl-gGlu-2×OEG), desB30 Human Insulin] |  | 0.0 |  |  | 
I: Me2Gly-VCQHLCGSHLVEALYLVCGERGFFYPK([γGlu-C18 diacid]) / II: Me2Gly-IVEQCCTSCCSLEQLENYCN (disulfide I:2-II:9, I:6-II:6, I:18-II:19, II:5-II:10) [Example 9, A1(N^α,N^α-Dimethyl), A10C, A14E, B1G(N^α,N^α-dimethyl), B3C, desB27, B29K(N^εoctadecanedioyl-gGlu), desB30 Human Insulin] | 5.7 |  |  |  | 
I: Me2Gly-VCQHLCGSHLVEALYLVCGERGFHYPK([AEEA-AEEA-γGlu-C18 diacid]) / II: Me2Gly-IVEQCCTSCCSLEQLENYCN (disulfide I:2-II:9, I:6-II:6, I:18-II:19, II:5-II:10) [Example 15, A1(N^α,N^α-Dimethyl), A10C, A14E, B1G(N^α,N^α-dimethyl), B3C, B25H, desB27, B29K(N^εoctadecanedioyl-gGlu-2×OEG), desB30 Human Insulin] | 10.4 | 1.2 |  |  | 
I: Me2Gly-VCQHLCGSHLVEALYLVCGERGFHYPK([γGlu-C18 diacid]) / II: Me2Gly-IVEQCCTSCCSLEQLENYCN (disulfide I:2-II:9, I:6-II:6, I:18-II:19, II:5-II:10) [Example 7, A1(N^α,N^α-Dimethyl), A10C, A14E, B1G(N^α,N^α-dimethyl), B3C, B25H, desB27, B29K(N^εoctadecanedioyl-gGlu), desB30 Human Insulin] | 0.6 | 0.4 |  |  | 
I: Me2Gly-VCQHLCGSHLVEALYLVCGERGFHYTPK([AEEA-AEEA-γGlu-C18 diacid]) / II: Me2Gly-IVEQCCTSCCSLEQLENYCN (disulfide I:2-II:9, I:6-II:6, I:18-II:19, II:5-II:10) [Example 16, A1(N^α,N^α-Dimethyl), A10C, A14E, B1G(N^α,N^α-dimethyl), B3C, B25H, B29K(N^εoctadecanedioyl-gGlu-2×OEG), desB30 Human Insulin] | 58.0 | 42.7 |  |  | 
I: NMe2Phe-VCQHLCGSHLVEALHLVCGERGFHYTPK([AEEA-AEEA-γGlu-C18 diacid]) / II: Me2Gly-IVEQCCTSCCSLEQLENYCN (disulfide I:2-II:9, I:6-II:6, I:18-II:19, II:5-II:10) [Example 13, A1(N^α,N^α-Dimethyl), A10C, A14E, B1(N^α,N^α-dimethyl), B3C, B16H, B25H, B29K(N^εoctadecanedioyl-gGlu-2×OEG), desB30 Human Insulin] | 9.8 |  |  |  | 
I: NMe2Phe-VCQHLCGSHLVEALHLVCGERGFHYTPK([γGlu-C18 diacid]) / II: Me2Gly-IVEQCCTSCCSLEQLENYCN (disulfide I:2-II:9, I:6-II:6, I:18-II:19, II:5-II:10) [Example 4, A1(N^α,N^α-Dimethyl), A10C, A14E, B1(N^α,N^α-dimethyl), B3C, B16H, B25H, B29K(N^εoctadecanedioyl-gGlu), desB30 Human Insulin] | 8.7 | −0.4 |  |  | 
I: NMe2Phe-VCQHLCGSHLVEALYLVCGERGFHYPK([γGlu-C20 diacid]) / II: Me2Gly-IVEQCCTSCCSLEQLENYCN (disulfide I:2-II:9, I:6-II:6, I:18-II:19, II:5-II:10) [Example 18, A1(N^α,N^α-Dimethyl), A10C, A14E, B1(N^α,N^α-dimethyl), B3C, B25H, desB27, B29K(N^εeicosanedioyl-gGlu), desB30 Human Insulin] | 4.2 | 5.1 | 0.12 | 0.02 | 0.72
I: NMe2Phe-VCQHLCGSHLVEALYLVCGERGFHYTPK([AEEA-AEEA-γGlu-C18 diacid]) / II: Me2Gly-IVEQCCTSCCSLEQLENYCN (disulfide I:2-II:9, I:6-II:6, I:18-II:19, II:5-II:10) [Example 12, A1(N^α,N^α-Dimethyl), A10C, A14E, B1(N^α,N^α-dimethyl), B3C, B25H, B29K(N^εoctadecanedioyl-gGlu-2×OEG), desB30 Human Insulin] |  |  | 0.077 |  | 
I: NMe2Phe-VCQHLCGSHLVEALYLVCGERGFHYTPK([γGlu-C18 diacid]) / II: Me2Gly-IVEQCCTSCCSLEQLENYCN (disulfide I:2-II:9, I:6-II:6, I:18-II:19, II:5-II:10) [Example 3, A1(N^α,N^α-Dimethyl), A10C, A14E, B1(N^α,N^α-dimethyl), B3C, B25H, B29K(N^εoctadecanedioyl-gGlu), desB30 Human Insulin] | 3.4 |  | 0.065 |  | 
I: NMe2Phe-VCQHLCGSHLVEALYLVCGERGFHYTPK([γGlu-C20 diacid]) / II: Me2Gly-IVEQCCTSCCSLEQLENYCN (disulfide I:2-II:9, I:6-II:6, I:18-II:19, II:5-II:10) [Example 19, A1(N^α,N^α-Dimethyl), A10C, A14E, B1(N^α,N^α-dimethyl), B3C, B25H, B29K(N^εeicosanedioyl-gGlu), desB30 Human Insulin] | 11.7 | 34.6 |  |  | 
I: {Phe(Nα-CONH2)}-VCQHLCGSHLVEALYLVCGERGFFYPK([γGlu-C18 diacid]) / II: Hydantoyl-IVEQCCTSCCSLEQLENYCN (disulfide I:2-II:9, I:6-II:6, I:18-II:19, II:5-II:10) [Example 36, A1(N^α-Carbamoyl), A10C, A14E, B1(N^α-carbamoyl), B3C, desB27, B29K(N^εoctadecanedioyl-gGlu), desB30 Human Insulin] |  |  |  | 0.01 | 0.7
